One may read the Kd as the concentration at which binding is half-saturated. A higher Kd goes with a looser complex.

Primed or numbered codes have the meaning given here. Where no end group is shown, it is not given here. [ ]: non-standard residue; d: D form. The star is where a group is joined. FITC = O=C1OC2(c3ccc(O)cc3Oc3cc(O)ccc32)c2ccc(NC(=S)*)cc21; pS = N[C@@H](COP(=O)(O)O)C(=O)O; PEG2″ = not defined here

This is an account of results in paper PMC7939381, “MMP activation–associated aminopeptidase N reveals a bivalent 14-3-3 binding motif” (The Journal of Biological Chemistry, 2020).

Common to all, as to assay: fluorescence polarisation; direct binding: dilution series of 14-3-3 protein added to FITC-labeled peptide (30 nM stock, 5 µl in 15 µl); 10 mM HEPES pH 7.4, 150 mM NaCl, 2 mM DTT, 0.01% Tween 20; 60 min at room temperature, read at 25 °C; four-parameter fit
Details in all cases: both partners purified
On the technique in general: Fluorescence polarisation rises when a labelled molecule tumbles more slowly, as on binding a larger partner.

The target in assay [1] is T1, 14-3-3σ, full length, N-terminally His6-tagged (human, UniProt P31947 1-248).
T1 construct: 14-3-3 sigma (stratifin), human, full length; no tag cleavage is described for the full-length proteins; also called stratifin; SFN; source: E. coli BL21(DE3), purified (HisTrap, SEC)
T1 sequence (looked up): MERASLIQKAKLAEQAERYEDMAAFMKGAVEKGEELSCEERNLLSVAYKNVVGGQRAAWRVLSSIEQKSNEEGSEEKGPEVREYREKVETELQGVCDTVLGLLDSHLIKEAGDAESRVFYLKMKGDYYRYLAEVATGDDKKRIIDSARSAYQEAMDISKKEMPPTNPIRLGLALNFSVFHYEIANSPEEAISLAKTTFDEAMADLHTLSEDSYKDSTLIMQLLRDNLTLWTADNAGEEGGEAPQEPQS

The target of assay [2] is T2, 14-3-3η, full length, N-terminally His6-tagged (human, UniProt Q04917 1-246).
T2 construct: 14-3-3 eta, human, full length; also called His6-14-3-3η; source: E. coli BL21(DE3), purified (HisTrap, SEC); also in E. coli cell lysate (pulldown); not shown: His6, N-terminal, kept
T2 sequence (looked up): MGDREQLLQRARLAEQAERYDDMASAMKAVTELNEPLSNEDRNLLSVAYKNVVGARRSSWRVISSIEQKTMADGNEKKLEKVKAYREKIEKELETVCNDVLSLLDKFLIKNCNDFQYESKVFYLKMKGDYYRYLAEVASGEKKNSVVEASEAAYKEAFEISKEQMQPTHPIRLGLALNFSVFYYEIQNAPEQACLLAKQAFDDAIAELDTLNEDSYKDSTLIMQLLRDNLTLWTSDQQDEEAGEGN

Assay [3] concerns the target T3, 14-3-3γ, full length, N-terminally His6-tagged (human, UniProt P61981 1-247).
T3 construct: 14-3-3 gamma, human, full length; source: E. coli BL21(DE3), purified (HisTrap, SEC)
T3 sequence (looked up): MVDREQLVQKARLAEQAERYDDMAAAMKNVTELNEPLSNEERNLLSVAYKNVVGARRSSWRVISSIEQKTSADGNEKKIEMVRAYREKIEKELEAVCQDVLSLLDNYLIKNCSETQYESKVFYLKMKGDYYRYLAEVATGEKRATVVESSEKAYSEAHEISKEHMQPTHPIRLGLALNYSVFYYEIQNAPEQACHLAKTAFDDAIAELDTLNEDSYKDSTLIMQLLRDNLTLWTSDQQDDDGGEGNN

In assay [4] the target is T4, 14-3-3ε, full length, N-terminally His6-tagged (human, UniProt P62258 1-255).
T4 construct: 14-3-3 epsilon, human, full length; source: E. coli BL21(DE3), purified (HisTrap, SEC)
T4 sequence (looked up): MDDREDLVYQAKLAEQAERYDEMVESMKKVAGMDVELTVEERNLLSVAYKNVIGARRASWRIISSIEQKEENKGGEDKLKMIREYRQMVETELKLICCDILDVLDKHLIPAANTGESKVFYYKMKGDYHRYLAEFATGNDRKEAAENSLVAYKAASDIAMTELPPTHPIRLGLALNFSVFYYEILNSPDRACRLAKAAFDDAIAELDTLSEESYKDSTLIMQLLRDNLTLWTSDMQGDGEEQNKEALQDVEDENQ

Assay [5] concerns the target T5, 14-3-3ζ, full length, N-terminally His6-tagged (human, UniProt P63104 1-245).
T5 construct: 14-3-3 zeta, human, full length; source: E. coli BL21(DE3), purified (HisTrap, SEC)
T5 sequence (looked up): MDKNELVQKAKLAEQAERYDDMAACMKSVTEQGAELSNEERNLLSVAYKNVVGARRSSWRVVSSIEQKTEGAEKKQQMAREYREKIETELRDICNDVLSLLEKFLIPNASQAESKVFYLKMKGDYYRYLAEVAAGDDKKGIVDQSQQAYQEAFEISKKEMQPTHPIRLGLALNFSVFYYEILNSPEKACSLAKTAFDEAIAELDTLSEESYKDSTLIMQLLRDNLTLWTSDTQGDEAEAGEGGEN

For assay [6], the target named is T6, 14-3-3θ, full length, N-terminally His6-tagged (human, UniProt P27348 1-245).
T6 construct: 14-3-3 theta (printed as τ in the introduction, θ in the results), human, full length; also called 14-3-3τ; source: E. coli BL21(DE3), purified (HisTrap, SEC)
T6 sequence (looked up): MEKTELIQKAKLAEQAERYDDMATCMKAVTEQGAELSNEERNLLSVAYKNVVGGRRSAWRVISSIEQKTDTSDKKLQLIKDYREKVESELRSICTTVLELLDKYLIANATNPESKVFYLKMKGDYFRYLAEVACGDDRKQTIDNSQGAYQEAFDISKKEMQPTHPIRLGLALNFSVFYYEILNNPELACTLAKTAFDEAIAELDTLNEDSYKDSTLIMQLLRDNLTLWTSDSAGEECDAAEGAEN

B1: FITC-labeled peptide 1, APN 38–46 pSer43 (peptide)
peptide: {FITC-PEG2″}-NKNAN[pS]SPV
notes: aminopeptidase N (APN, CD13), human, residues 38-46; also called site 1; source: synthetic peptide (Fmoc SPPS, HPLC purified)
With B1, the dissociation constant Kd in assay [1] turned out to be 1.7 ± 0.1 µM; in assay [2], 0.32 ± 0.04 µM. Moreover, the binding result in assay [3], in assay [4], in assay [5] and in assay [6] was “binds” throughout.
